The target of test [1] is T1, LRP6_(P3E3P4E4), wild type (human, UniProt O75581 629-1244).
T1 sequence (looked up): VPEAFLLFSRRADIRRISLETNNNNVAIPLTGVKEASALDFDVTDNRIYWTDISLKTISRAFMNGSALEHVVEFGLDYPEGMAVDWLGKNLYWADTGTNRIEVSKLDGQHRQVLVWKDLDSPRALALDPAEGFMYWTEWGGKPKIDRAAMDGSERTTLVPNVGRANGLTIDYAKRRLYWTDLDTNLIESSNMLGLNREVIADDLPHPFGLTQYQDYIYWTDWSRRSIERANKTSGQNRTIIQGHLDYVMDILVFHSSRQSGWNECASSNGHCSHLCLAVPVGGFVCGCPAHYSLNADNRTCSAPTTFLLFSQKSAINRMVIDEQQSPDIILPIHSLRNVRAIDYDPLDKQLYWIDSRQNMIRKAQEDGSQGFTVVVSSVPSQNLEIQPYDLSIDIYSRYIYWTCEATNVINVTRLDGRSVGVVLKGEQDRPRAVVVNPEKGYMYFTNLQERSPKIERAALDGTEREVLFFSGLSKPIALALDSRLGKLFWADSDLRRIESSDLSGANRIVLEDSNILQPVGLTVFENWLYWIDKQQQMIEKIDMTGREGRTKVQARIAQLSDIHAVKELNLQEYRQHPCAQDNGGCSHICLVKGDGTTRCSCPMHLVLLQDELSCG
The experiment in a line: SPR.

A further test deals with T2, LRP6_(P3E3P4E4) W767A (human, UniProt O75581 629-1244, W767A).
T2 sequence (looked up): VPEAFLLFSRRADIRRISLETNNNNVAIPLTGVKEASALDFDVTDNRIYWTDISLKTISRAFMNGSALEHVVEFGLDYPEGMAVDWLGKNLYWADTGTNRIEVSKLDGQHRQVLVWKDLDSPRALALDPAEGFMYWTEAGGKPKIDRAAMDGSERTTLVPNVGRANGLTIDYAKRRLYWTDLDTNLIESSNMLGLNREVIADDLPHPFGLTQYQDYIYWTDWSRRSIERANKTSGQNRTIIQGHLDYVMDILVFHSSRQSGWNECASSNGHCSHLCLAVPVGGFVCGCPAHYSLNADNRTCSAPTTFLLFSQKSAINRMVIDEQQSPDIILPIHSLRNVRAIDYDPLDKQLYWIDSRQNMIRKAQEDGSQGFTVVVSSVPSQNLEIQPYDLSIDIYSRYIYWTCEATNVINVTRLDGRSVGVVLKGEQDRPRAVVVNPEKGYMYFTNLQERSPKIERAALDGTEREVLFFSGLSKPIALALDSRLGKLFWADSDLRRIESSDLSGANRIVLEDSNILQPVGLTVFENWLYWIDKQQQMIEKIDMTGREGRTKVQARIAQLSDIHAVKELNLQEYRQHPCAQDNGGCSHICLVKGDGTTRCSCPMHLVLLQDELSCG
The experiment in a line: SPR. On the technique in general: SPR reads the build-up and loss of mass on a sensor chip optically.

The target in another test is T3, LRP6_(P3E3P4E4) Y706A (human, UniProt O75581 629-1244, Y706A).
T3 sequence (looked up): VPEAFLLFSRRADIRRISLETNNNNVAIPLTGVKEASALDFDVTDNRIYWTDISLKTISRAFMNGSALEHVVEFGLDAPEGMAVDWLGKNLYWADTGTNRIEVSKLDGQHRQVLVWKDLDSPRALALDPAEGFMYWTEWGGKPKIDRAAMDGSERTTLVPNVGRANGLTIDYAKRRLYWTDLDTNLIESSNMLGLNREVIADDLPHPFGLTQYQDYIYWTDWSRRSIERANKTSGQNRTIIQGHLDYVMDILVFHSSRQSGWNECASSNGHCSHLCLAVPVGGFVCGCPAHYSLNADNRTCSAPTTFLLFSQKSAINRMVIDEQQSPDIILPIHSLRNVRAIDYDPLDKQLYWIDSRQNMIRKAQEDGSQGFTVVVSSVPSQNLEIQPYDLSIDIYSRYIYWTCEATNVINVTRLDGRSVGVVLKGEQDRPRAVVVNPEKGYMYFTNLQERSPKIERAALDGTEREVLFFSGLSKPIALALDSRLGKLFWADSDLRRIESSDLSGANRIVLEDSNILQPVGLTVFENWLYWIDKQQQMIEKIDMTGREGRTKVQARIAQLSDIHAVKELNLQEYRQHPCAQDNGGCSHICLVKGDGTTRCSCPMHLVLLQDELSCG
As to the kind of experiment: SPR.

A further test concerns the target T4, LRP6_(P3E3P4E4) E708A (human, UniProt O75581 629-1244, E708A).
T4 sequence (looked up): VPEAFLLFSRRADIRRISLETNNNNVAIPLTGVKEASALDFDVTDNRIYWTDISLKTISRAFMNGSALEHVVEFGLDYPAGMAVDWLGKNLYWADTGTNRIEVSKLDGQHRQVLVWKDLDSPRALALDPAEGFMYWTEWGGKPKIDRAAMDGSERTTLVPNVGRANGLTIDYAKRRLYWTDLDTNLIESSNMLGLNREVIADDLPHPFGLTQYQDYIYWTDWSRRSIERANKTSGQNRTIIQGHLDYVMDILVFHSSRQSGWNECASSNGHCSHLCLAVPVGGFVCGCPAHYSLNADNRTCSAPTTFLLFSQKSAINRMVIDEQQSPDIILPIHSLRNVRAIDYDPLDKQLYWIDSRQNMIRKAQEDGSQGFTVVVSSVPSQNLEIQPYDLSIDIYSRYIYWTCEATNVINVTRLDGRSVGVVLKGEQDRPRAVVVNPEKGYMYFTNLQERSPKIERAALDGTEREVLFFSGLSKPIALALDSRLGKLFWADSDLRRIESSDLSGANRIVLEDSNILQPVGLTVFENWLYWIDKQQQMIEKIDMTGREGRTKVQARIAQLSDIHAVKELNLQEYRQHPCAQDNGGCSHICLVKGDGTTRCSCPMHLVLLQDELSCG
The experiment in a line: SPR.

Another test deals with T5, LRP6_(P3E3P4E4) N813A (human, UniProt O75581 629-1244, N813A).
T5 sequence (looked up): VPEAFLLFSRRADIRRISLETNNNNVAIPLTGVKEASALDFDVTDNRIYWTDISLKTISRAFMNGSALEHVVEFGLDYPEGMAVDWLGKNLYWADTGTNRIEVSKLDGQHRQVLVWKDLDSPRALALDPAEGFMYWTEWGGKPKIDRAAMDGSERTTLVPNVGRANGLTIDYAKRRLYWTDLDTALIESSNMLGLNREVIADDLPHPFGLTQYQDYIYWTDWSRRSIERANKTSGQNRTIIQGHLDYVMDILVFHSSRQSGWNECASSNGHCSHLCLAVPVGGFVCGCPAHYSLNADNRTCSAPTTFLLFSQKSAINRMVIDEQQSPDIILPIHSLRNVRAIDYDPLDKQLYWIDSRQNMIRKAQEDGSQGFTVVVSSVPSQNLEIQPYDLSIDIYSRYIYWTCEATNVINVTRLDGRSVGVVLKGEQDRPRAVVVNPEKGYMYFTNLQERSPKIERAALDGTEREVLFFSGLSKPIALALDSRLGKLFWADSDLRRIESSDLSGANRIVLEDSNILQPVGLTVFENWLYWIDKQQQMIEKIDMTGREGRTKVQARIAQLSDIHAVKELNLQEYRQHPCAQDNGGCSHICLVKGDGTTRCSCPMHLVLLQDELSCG
The experiment in a line: SPR.

For test [2], the target named is T6, LRP6 ectodomain (LRP6ECD) (human, UniProt O75581 20-1361).
T6 sequence (looked up): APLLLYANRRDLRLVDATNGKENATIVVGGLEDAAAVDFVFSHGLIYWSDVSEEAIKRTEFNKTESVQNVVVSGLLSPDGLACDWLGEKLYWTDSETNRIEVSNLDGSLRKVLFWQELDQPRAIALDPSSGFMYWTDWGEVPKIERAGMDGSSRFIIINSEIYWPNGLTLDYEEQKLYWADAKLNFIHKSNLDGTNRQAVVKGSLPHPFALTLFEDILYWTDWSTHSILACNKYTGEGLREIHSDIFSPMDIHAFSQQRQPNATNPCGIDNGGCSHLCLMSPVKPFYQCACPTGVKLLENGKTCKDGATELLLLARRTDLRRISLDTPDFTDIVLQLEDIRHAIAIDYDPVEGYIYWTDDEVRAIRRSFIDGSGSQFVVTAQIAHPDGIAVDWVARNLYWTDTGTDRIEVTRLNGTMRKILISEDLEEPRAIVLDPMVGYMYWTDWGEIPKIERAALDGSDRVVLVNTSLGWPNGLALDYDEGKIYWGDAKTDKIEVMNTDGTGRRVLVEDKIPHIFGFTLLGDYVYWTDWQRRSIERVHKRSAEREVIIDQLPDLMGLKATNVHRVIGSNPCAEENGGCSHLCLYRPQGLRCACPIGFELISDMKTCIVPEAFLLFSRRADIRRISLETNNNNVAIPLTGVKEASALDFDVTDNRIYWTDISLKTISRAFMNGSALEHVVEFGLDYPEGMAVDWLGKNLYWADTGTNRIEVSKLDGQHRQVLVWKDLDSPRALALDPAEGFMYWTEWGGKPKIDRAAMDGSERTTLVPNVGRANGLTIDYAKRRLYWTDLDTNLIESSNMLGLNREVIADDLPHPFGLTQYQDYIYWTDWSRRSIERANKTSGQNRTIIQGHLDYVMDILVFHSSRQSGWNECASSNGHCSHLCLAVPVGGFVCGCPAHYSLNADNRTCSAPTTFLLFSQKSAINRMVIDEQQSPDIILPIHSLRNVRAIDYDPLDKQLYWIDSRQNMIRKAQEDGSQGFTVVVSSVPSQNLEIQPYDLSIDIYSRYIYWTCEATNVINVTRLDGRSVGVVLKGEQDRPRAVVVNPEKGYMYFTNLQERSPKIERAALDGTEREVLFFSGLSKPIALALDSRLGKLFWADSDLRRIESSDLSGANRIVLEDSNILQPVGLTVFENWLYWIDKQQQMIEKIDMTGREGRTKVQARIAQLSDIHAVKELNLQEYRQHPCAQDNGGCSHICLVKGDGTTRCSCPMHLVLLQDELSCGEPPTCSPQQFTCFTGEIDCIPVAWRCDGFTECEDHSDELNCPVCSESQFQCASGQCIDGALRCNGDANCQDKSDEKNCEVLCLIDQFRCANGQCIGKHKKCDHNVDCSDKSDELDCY
As to the kind of experiment: SEC-MALS. On the technique in general: Size exclusion chromatography separates by hydrodynamic size, large species first.

B1: Dickkopf 1 (Dkk1) (ligand, human, UniProt O94907 32-266, looked up)
chain: TLNSVLNSNAIKNLPPPLGGAAGHPGSAVSAAPGILYPGGNKYQTIDNYQPYPCAEDEECGTDEYCASPTRGGDAGVQICLACRKRRKRCMRHAMCCPGNYCKNGICVSSDQNHFRGEIEETITESFGNDHSTLDGYSRRTTLSSKMYHTKGQEGSVCLRSSDCASGLCCARHFWSKICKPVLKEGQVCTKHRRKGSHGLEIFQRCYCGEGLSCRIQKDHHQASNSSRLHTCQRH
As a reminder, the Kd is the concentration at which binding is half-saturated. High values mean a looser complex, low ones a tighter complex. B1 came in with a Kd in test [1] of 58 nM. Also, the binding result with LRP6_(P3E3P4E4) W767A, in the test with LRP6_(P3E3P4E4) Y706A, with LRP6_(P3E3P4E4) E708A and with LRP6_(P3E3P4E4) N813A was “binds” in each case.

B2: human Mesd with an internal Flag tag (co-expressed with LRP6ECD) (natural protein, UniProt Q14696-1 34-234, looked up)
chain: AEGSPGTPDESTPPPRKKKKDIRDYNDADMARLLEQWEKDDDIEEGDLPEHKRPSAPVDFSKIDPSKPESILKMTKKGKTLMMFVTVSGSPTEKETEEITSLWQGSLFNANYDVQRFIVGSDRAIFMLRDGSYAWEIKDFLVGQDRCADVTLEGQVYPGKGGGSKEKNKTKQDKGKKKKEGDLKSRSSKEENRAGNKREDL
The stoichiometry N is the number of molecules, sites or subunits per partner or assembly. Regarding B2, the “stoichiometry N” value in test [2] amounted to 1.

For the origin of these results see PMC3564486 (Developmental cell, 2011).
